Test results reported in paper doi:10.1101/2021.11.02.466974 (bioRxiv, 2021).

Columns and labels:
M1-linked diUb = M1-linked diUb (UniProt P0CG48); experiment: ITC
monoUb = monoUb (UniProt P0CG48 1-76); experiment: ITC
SEC = molecular target: the molecule itself; experiment: SEC
[1] = molecular target: the molecule itself; experiment: Western blot of lysate under non-denaturing conditions

binding result (M1-linked diUb)	binding result (monoUb)	Binder	binding result (SEC)	stoichiometry N [1]
binds	binds	ETSELREALLKIFPDSEQKLKIDQILAAHPYMKDLNALSALVLD (domain or fragment) [isolated N4BP1 CUE domain (residues 850-893) used for ITC, NMR and analytical gel filtration]	binds	–
–	–	mouse N4BP1 (613-893) in cell lysate (dimerization test of Fig. 2B) (domain or fragment) ADLKHIVIDGSNVAITHGLKKFFSCRGIAIAVEYFWKLGNRNITVFVPQWRTRRDPNITEQHFLTQLQELGILSLTPARMVFGERIASHDDRFLLHLADKTGGIIVTNDNFREFVTESVSWREIITKRLLQYTFVGDIFMVPDDPLGRNGPRLEEFLRKEAFLRHMQPLLNALPSVGTFDPGFRSPSTQVANNSHQPPPRIQTSSSPWLPQQSHFTALATLPSMQQNPPLPAQRSSAETSELREALLKIFPDSEQKLKIDQILAAHPYMKDLNALSALVLD	–	2
